The record followed here is patent US20210079067A1 (US Dept. of Health and Human Services, published 2021).

Test [1] has as its target T1, Zaire ebolavirus full-length GP (Zaire ebolavirus, UniProt Q05320 33-650).
T1 sequence: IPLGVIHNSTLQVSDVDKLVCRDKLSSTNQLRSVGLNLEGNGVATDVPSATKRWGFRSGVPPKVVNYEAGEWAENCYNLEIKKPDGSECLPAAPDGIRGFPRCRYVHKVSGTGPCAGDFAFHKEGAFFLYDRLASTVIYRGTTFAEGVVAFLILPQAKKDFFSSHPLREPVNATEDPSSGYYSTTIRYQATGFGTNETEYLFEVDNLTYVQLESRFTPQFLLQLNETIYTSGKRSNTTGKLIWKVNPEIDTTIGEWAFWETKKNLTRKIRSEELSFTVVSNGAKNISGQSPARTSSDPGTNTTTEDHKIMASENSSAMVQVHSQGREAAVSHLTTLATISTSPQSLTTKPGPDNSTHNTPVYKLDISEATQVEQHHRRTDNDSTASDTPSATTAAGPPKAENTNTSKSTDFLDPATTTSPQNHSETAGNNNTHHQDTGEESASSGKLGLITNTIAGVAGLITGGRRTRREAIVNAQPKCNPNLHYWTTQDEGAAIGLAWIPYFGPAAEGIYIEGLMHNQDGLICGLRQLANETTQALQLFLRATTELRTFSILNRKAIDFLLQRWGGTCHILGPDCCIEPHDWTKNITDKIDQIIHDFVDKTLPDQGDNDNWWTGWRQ
The experiment in a line: ELISA on plates coated with purified full-length Zaire ebolavirus GP, A450.

The target in test [2] is T2, Zaire ebolavirus secreted GP (sGP) (Zaire ebolavirus, UniProt P60170 33-324).
T2 sequence: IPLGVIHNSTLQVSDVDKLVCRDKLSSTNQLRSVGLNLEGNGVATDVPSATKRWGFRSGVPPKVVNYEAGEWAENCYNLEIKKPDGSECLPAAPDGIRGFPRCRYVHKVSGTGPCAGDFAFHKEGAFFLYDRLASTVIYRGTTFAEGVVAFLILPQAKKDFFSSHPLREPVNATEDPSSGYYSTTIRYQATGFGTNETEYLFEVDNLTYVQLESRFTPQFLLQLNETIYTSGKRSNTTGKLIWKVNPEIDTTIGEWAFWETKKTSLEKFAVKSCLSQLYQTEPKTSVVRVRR
The experiment in a line: ELISA on plates coated with purified Zaire ebolavirus sGP, A450. In general terms: An ELISA detects its analyte on a solid surface through an enzyme-linked reagent.

Test [3] addresses T2, Zaire ebolavirus secreted GP (sGP). Briefly: biolayer interferometry, pH 7.4.

B1: mAb100 (antibody, V domains shown)
VH: QVQLQESGPGLVKPSDTLSLTCTVSGGSLSSFYWSWIRQPPGKGLEWIGYIYYSGSPNYSPSLESRVTMSVDTTRNQISLKLDSVTAADTAVYYCVRASRSYYWGSYRPTAFDSWGQGTLVTVSS
VL: SYELTQPLSVSVSPGQTAIFTCSGDNLGDKYVCWFQQRPGQSPMLLIYQDNKRPSGIPERFSGSNSGNTATLTISGTQSTDEADYYCQTWDSTVVFGGGTKLTVL
Turning to B1, the “EC50 (read off the curve)” value in test [1] is approximately 0.02 µg/mL.

B2: S1-4-A09 antibody (IgG1 expressed version) (antibody, V domains shown)
VH: QVQLQESGPGLVKPSETLSLTCVVSGGILSSFYWNWIRQPPGKGLEWIGNIYYSGSPNYNASFQSRVAISVDTSKNQISLNLKSVTAADTAMYYCVRASRAYLWGSYRPTALDLWGQGSLVTVSS
VL: SYELTQPPSVSVSPGQTATITCSGDKLGDKYTSWFQQRPGQSPLLVIYQDNKRPSGLPARFSGSNSGNTATLTISGTQAMDEADYLCQVWDSGAVFGGGTKLTVLG
Consider B2, for which the binding result in test [2] is “no binding”. Also, the “EC50 (read off the curve)” value in test [1] is approximately 0.03 µg/mL.

B3: S1-4-A09 Fab (Fab, V domains shown)
VH: B2 VH
VL: SYELTQPPSVSVSPGQTATITCSGDKLGDKYTSWFQQRPGQSPLLVIYQDNKRPSGLPARFSGSNSGNTATLTISGTQAMDEADYLCQVWDSGAVFGGGTKLTVL
B3: in test [3], the binding result is “no binding”.

A word on the EC50 (read off the curve): it is the concentration that produces a half-maximal response. The low end stands for greater potency, the high end for weaker potency.
